Measured values from patent US20180044406A1 (UNIVERSITY OF ROCHESTER, published 2018).

Target: T1, recombinant His-glucosaminidase (His-Gmd), 6-His tagged 53 kDa glucosaminidase subunit of S. aureus autolysin (Staphylococcus aureus, UniProt A7X0T9 776-1254)
T1 sequence: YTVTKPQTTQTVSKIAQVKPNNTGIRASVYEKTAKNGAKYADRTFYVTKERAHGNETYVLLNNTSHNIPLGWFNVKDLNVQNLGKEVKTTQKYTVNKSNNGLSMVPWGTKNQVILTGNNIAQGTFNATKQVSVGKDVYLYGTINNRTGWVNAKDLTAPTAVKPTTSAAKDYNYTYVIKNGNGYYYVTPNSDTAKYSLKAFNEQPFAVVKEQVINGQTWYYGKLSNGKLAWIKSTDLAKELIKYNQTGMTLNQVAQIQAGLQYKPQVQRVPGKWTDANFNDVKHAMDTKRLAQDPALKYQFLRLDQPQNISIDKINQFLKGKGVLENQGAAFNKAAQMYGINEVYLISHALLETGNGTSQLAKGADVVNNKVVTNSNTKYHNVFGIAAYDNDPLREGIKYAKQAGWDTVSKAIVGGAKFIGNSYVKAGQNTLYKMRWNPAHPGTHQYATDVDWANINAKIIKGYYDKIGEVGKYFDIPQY
Assay: cell-based or functional assay

B1: monoclonal antibody 4A12 (mouse IgG1) (antibody, V domains shown)
VH: QVQLQQPGAELVGPGTSVKLSCKSSGYTFTKYWMHWLKQRPGQGLEWIGVIDPSDSYTNYNQKFKGKATLTVDTSSSTAYLQLSSLTSEDSAVYYCANYYGSYYDVMDFWGQGTSVTVSS
VL: DVQITQSPSYLAASPGETITINCRASKSISKYLAWYQEKPGKTNKLLICFGSTLQSGTPSRFSGSGSGTDFTLTISSLEPEDFATYYCQQHNEYPLTFGAGTKLELKR
fold difference, mouse 4A12 against h4A12, in the minimum concentration able to achieve ~100% inhibition of Gmd activity: ~3 fold
